Drawing on the supplement of paper PMC12042874, this text covers amyloid nucleation score for 139 substances.

The nature of this data set: amyloid nucleation score (Sup35N fusion, yeast selection) (log enrichment); library NNK2; higher = more nucleation; inactive = no reads after selection. In a few lines: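 Nucleation score is defined as the DiMSum log enrichment of output over input reads, with centring on the mode score of non-aggregating sequences. A minimum of 100 input reads was required for each sequence. Reads came from Illumina sequencing of plasmid inserts from psi-negative yeast expressing Sup35N fused to peptides of 20 random codons, induced with 100 μM copper sulfate for 24 hours and grown 7 days at 30°C on medium lacking adenine and uracil.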

± gives the uncertainty stated by the source.

Turning to GGGAAPNPTDYKSILLLC, the amyloid nucleation score came out at 0.17 ± 0.34.

MLRLFQYFLGTNFWGHQGFS showed an amyloid nucleation score of -0.724 ± 1.1.

Consider TRSMSSAPADCVASGT, for which the amyloid nucleation score is -0.512 ± 0.76.

As to LTRRVGIFFHFG, the amyloid nucleation score was determined as 4.74 ± 0.05.

For FEPWWCNSIMRLVVIEGEW, the amyloid nucleation score is 0.315 ± 0.46.

The substance AVSFRFIGVYRGM yielded an amyloid nucleation score of 3.95 ± 0.12.

Take RLTDLVSMVSLNPLYFMWSS: the amyloid nucleation score is -0.08 ± 0.3.

Take PRWRDRVVNMKSDLDGV: the amyloid nucleation score turned out to be 5.51 ± 0.073.

Consider MSPWRDRSRFKIYDGPTWRM, for which the amyloid nucleation score came to 0.728 ± 0.8.

Turning to LFFSATKTCSWSLKECAKR, the amyloid nucleation score was -0.243 ± 1.1.

The substance IDFRISLCVRFFGCFLLDYY yielded an amyloid nucleation score of -0.618 ± 0.76.

FSHFAPWLSSDLCMWSCYLG registered an amyloid nucleation score of 5.269 ± 0.041.

As to IVRVIMYLCGNLLVNRWGNA, the amyloid nucleation score worked out at 0.082 ± 1.1.

HLYRSCVNKLL showed an amyloid nucleation score of -0.833 ± 1.1.

ATVSDYKVHGSDLFSFTVND showed an amyloid nucleation score of 8.299 ± 0.058.

For LYQSYHELSFVTVHRSSKVD, the amyloid nucleation score is 2.45 ± 0.15.

On to LNISFSDSLSRLVV, for which the amyloid nucleation score was -0.935 ± 1.1.

For LFNGECGICDQEKYLVRQTV, the amyloid nucleation score was determined as 0.065 ± 1.1.

Consider RASARLVCTFYVLTERG, for which the amyloid nucleation score worked out at 4.17 ± 0.064.

Take AAFLAVSGFCNLPGGSTHIL: the amyloid nucleation score worked out at 2.38 ± 0.079.

FFTRRLNSNWMCFLADNCYR showed an amyloid nucleation score of -0.439 ± 0.64.

Consider YAQQIVVLVAGPWWSWTRRG, for which the amyloid nucleation score came out at 0.791 ± 0.81.

Substance VKALNH showed an amyloid nucleation score of 0.66 ± 0.33.

As to IMNKVAWWIFMRMLSRGFVT, the amyloid nucleation score is -1.1 ± 0.54.

With VVYPCFSIMLQMEVLYIVFI, the amyloid nucleation score was 1.33 ± 0.33.

With SGRLL, the amyloid nucleation score came out at 1 ± 0.13.

The substance SSYKTLPAMLVARMLINYTV yielded an amyloid nucleation score of -1.02 ± 0.45.

The substance DMRLWCVWSSIACDTSYSTS registered an amyloid nucleation score of 0.26 ± 0.2.

Turning to GCSNVCERGS, the amyloid nucleation score result is “inactive”.

In turn, DCLNYFTTLIKLVSLVCWNG displayed an amyloid nucleation score of -0.571 ± 0.79.

Regarding RAANYCGLKQAWSGFKRCVA, the amyloid nucleation score was 0.496 ± 0.36.

The substance MMVGFLCK displayed an amyloid nucleation score of 3.91 ± 0.07.

Regarding NSRLEVGSNSKQDLMAMSKT, the amyloid nucleation score was -1.12 ± 0.74.

As to SYWSLRLFCFQLCLDHYRNG, the amyloid nucleation score came to 2.74 ± 0.21.

In turn, EVMCMSRYDPR displayed an amyloid nucleation score of -0.557 ± 1.1.

Substance KSGLTQLLQILSSCLELGIW gave an amyloid nucleation score of 0.38 ± 0.51.

With YRDNCMRNIENSVT, the amyloid nucleation score was -0.802 ± 0.54.

Substance ISSDLWVHSFNTILSENGVC yielded an amyloid nucleation score of -0.674 ± 0.63.

The substance ESLGDSI returned an amyloid nucleation score of -0.352 ± 1.

For FITDYTWTYLHAWLFIHQGV, the amyloid nucleation score was -0.705 ± 1.1.

WLVKLSGDMF came in with an amyloid nucleation score of 2.54 ± 0.073.

On to SCVCVMSYQLNVWRKHDSCI, for which the amyloid nucleation score came to 4.606 ± 0.035.

The substance YYGNFHLMSWVWSIGPCSIY gave an amyloid nucleation score of 4.88 ± 0.11.

For FGFVTKYFMGV, the amyloid nucleation score turned out to be 1.96 ± 0.23.

Turning to TDAGNKGNTTCNRRSACLFY, the amyloid nucleation score amounted to 0.669 ± 0.74.

In turn, LNLLK returned an amyloid nucleation score of -1.18 ± 1.1.

In turn, LSDAMILNLRAIFSSISLLQ yielded an amyloid nucleation score of -0.86 ± 0.78.

TARDVFIAVFA displayed an amyloid nucleation score of 0.089 ± 1.1.

Consider CRSKASSSIRIPT, for which the amyloid nucleation score is 0.586 ± 0.81.

Substance CWRVNRFYVQSSYMGFVWSV showed an amyloid nucleation score of -0.73 ± 1.1.

In turn, LILLY had an amyloid nucleation score of -0.277 ± 1.

Regarding FPASHRVVQV, the amyloid nucleation score is 5.41 ± 0.065.

As to FRGSAFS, the amyloid nucleation score amounted to 7.173 ± 0.051.

Regarding WSGKRAFNYINGGLGMAKEL, the amyloid nucleation score is 4.11 ± 0.062.

The substance PCCFYLRICLCFSNTVEPIG gave an amyloid nucleation score of 4.07 ± 0.046.

On to LMCTSAKSADMSH, for which the amyloid nucleation score is 0.992 ± 0.6.

The substance MVIQHIDRPDYWISWGHNKG registered an amyloid nucleation score of 5.112 ± 0.048.

In turn, LWFGTIHNNTVGSNIDFTFT came in with an amyloid nucleation score of 4.71 ± 0.092.

As for VQFPSVMFICRIARRRTY, the amyloid nucleation score was determined as 0.746 ± 0.67.

Take DMSSHGGWFRPRRFLEISPL: the amyloid nucleation score was 0.183 ± 1.

HRNQTASKGCSCLLDCHDTG had an amyloid nucleation score of 0.356 ± 0.23.

As to NSNGEFIKGACHMVRLFGLQ, the amyloid nucleation score stood at 0.098 ± 1.

FSGFVCWQADIFDDANIRLV showed an amyloid nucleation score of -0.707 ± 0.78.

Consider QENFCEYFFDRSITSWWR, for which the amyloid nucleation score entry was “inactive”.

YCLSIWIDLSFIFVIRVDSG: the amyloid nucleation score entry is “inactive”.

Turning to GCHSWSNLGEWCCYIYKMVI, the amyloid nucleation score was -1.14 ± 0.78.

VVYRLDFRPFNSPPCMRSAS showed an amyloid nucleation score of 0.074 ± 0.32.

For the substance LSGLRSFLRRWRGQVKPVLV, the amyloid nucleation score was -0.133 ± 1.

CGVPNYQLVVEWMMTNRVGN registered an amyloid nucleation score of -0.888 ± 0.78.

Regarding HSMAWNVG, the amyloid nucleation score result is “inactive”.

Turning to VGRCTINFIRLRDWVRLRQN, the amyloid nucleation score is -0.082 ± 0.6.

In turn, CDSKVENIWVDLNEMYFFCN yielded an amyloid nucleation score of 2.54 ± 0.17.

For RDLLIGDDI, the amyloid nucleation score is -0.983 ± 0.44.

For the substance TFFGWLALRIWARYRYE, the amyloid nucleation score entry was “inactive”.

In turn, HFETGGIS showed an amyloid nucleation score of 0.447 ± 0.57.

The substance AWLLTLPKLYSLEC gave an amyloid nucleation score of -0.434 ± 0.6.

In turn, GRDPGNDEIDKLALSWRLMG showed an amyloid nucleation score of 0.657 ± 0.32.

For the substance ALLYYSMCCRFMRPTSAYHV, the amyloid nucleation score was found to be 0.246 ± 1.1.

For the substance CWNKEGRFTRVTMEHASRRA, the amyloid nucleation score was 0.973 ± 0.48.

Turning to TRETHLGNAFA, the amyloid nucleation score amounted to 0.674 ± 0.53.

In the case of SVNWTRLRECKPWMQVFNRG, the amyloid nucleation score was found to be 0.208 ± 0.56.

HNTKSYLWV: the amyloid nucleation score entry is “inactive”.

VRCGGVSFGSMWVLDSILVR gave an amyloid nucleation score of 0.652 ± 0.15.

In turn, YVFSIYGPFLLVEGLSTPFR displayed an amyloid nucleation score of 4.49 ± 0.095.

For PMSSMMRGSDPKV, the amyloid nucleation score came to 0.119 ± 0.76.

With RMYLVGMLMHSLLEEMSKTA, the amyloid nucleation score amounted to 4.76 ± 0.083.

The substance FVYVIFQSNMGPYWRNRRLL had an amyloid nucleation score of 0.636 ± 0.81.

Take FGKFFCCWSSLRNEKCYFAM: the amyloid nucleation score result was “inactive”.

For FGYMCEAPHRVDFRLFELLQ, the amyloid nucleation score entry is “inactive”.

The substance HDYFTYT displayed an amyloid nucleation score of 4.83 ± 0.059.

VNECSFYIIPQTAQWCLVV returned an amyloid nucleation score of 0.086 ± 0.5.

TSVASGRNGNSPVHNALAWG showed an amyloid nucleation score of 0.2 ± 0.35.

Take FDFLSSFPRLWVRVEGIPCF: the amyloid nucleation score is -0.994 ± 0.55.

As to KWPHRYINTLVPLLIRWTYR, the amyloid nucleation score is -0.421 ± 0.37.

MNPYLVGPFERVV: the amyloid nucleation score was found to be 0.061 ± 0.33.

STCVCYGSFCEASLWASLDG gave an amyloid nucleation score of 6.58 ± 0.075.

The substance RLSLGLYINALRC returned an amyloid nucleation score of 1.01 ± 0.51.

In the case of VSAGWSTST, the amyloid nucleation score was 3 ± 0.09.

With HDRVIRQN, the amyloid nucleation score is 0.084 ± 0.26.

As for MRHMYRPPIVSLHRVAIGFM, the amyloid nucleation score was -0.906 ± 0.63.

MVINSFPPGWVRGHMIKSTG came in with an amyloid nucleation score of -0.39 ± 0.76.

On to VRMSSRRS, for which the amyloid nucleation score is 1.24 ± 0.36.

In turn, CGYLRDTWWFFCVTLRNRGV gave an amyloid nucleation score of 1.12 ± 0.27.

AHCVRVLHIKSRMVVSWESR had an amyloid nucleation score of 4.19 ± 0.099.

Turning to RDWQYRIYVQCNR, the amyloid nucleation score worked out at 2.17 ± 0.14.

In turn, RIGLMNL yielded an amyloid nucleation score of 3.38 ± 0.11.

Consider KWRAFYPSTGSLRVEILSF, for which the amyloid nucleation score was -1.22 ± 1.1.

SAMSCPTKSAELRKCSYHPS returned an amyloid nucleation score of 0.246 ± 0.27.

GISCYLRVHTSANDESCSER returned an amyloid nucleation score of 0.426 ± 0.8.

For QVGRSSQCEDTVVFIRVRLW, the amyloid nucleation score turned out to be 3.77 ± 0.066.

In turn, LWLVYSESWSMYAMS displayed an amyloid nucleation score of 1.19 ± 0.12.

Substance DRYHDTMAMKARVWSDRCKS displayed an amyloid nucleation score of 1.94 ± 0.34.

YRVDSHWANLVLKTSMIWTT yielded an amyloid nucleation score of -0.829 ± 0.28.

In turn, PSDTYNNDG gave an amyloid nucleation score of 0.751 ± 0.58.

Regarding FGLLLWYLCFSHIG, the amyloid nucleation score entry was “inactive”.

In the case of DNIKTVSRMTWPWLMFTVGG, the amyloid nucleation score is 0.3 ± 0.55.

Consider SGFKLLGFTNYVHAVSMGSQ, for which the amyloid nucleation score turned out to be 3.25 ± 0.15.

Regarding GTTVMGGILVLDGQALIGSM, the amyloid nucleation score is 1.06 ± 0.28.

ATVFF: the amyloid nucleation score came to 0.768 ± 0.28.

RGNHNHGLWNPKNSMVMWEG showed an amyloid nucleation score of 0.062 ± 0.48.

As for NVGGIASLGPFTY, the amyloid nucleation score is -0.14 ± 0.27.

In turn, VNIWAVNICC had an amyloid nucleation score of 7.8 ± 0.048.

Turning to VRLCKYENSSWLSFRFQVQG, the amyloid nucleation score came to 0.56 ± 0.39.

Substance FHNLASFVRKSRVYQHKRNA registered an amyloid nucleation score of -0.231 ± 0.63.

PEYPVQIYMSMDL registered an amyloid nucleation score of -1.33 ± 0.78.

Consider SLYVGFNRFFIRPVCCEVRG, for which the amyloid nucleation score was -0.608 ± 1.1.

YILLWVYIHDGLAWSTLLDW had an amyloid nucleation score of 0.757 ± 0.6.

IVMVPFLTIPVLYLVVMSSL returned an amyloid nucleation score of -0.788 ± 1.1.

As for RVQVQLLISVYFFLYLPHSI, the amyloid nucleation score was -1.58 ± 0.41.

GIYNVLS came in with an amyloid nucleation score of -0.108 ± 1.1.

KMHCGFDFEWVTTYNTTIVR gave an amyloid nucleation score of -0.369 ± 0.47.

Regarding SFLRARLCCHMMGHSTLKYH, the amyloid nucleation score was -0.72 ± 1.1.

As to DFCSLATYGKRGFCDMYYYV, the amyloid nucleation score was 0.343 ± 0.35.

Turning to SRTDRLDGCAWLLYDCTMGD, the amyloid nucleation score is -0.211 ± 0.53.

KKDSSWFRLNDKKVVSSHKR came in with an amyloid nucleation score of -0.215 ± 0.2.

LKMGVGCRGRLLWCSLTCMR showed an amyloid nucleation score of 1.46 ± 0.31.

In the case of LDYRWKTGGSLWGG, the amyloid nucleation score was -0.578 ± 1.1.

Substance DFDSQRSLKSSDRRFVTFTY returned an amyloid nucleation score of -0.869 ± 0.55.

RPKTEDCGLNLSTVLNQVGH registered an amyloid nucleation score of 0.111 ± 0.19.
